Source: the supplement of paper PMC10724198
± gives the standard deviation of the averaged measurements.

tested on: Saccharomyces cerevisiae; assay: protein stability index of tFT-peptide fusion (C-terminal peptide) (PSI (0-1 scale)); higher = more stable (slower turnover); conditions: genetic background: wild type; temperature: 30 C
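Also: PSI is a weighted mean of sequencing reads over stability bins, variants kept only with over 10 reads, mCherry proximal and sfGFP distal, peptide attached via GGGS linker.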

| Sequence | protein stability index |
| --- | --- |
| MQLWECKQSLCD | 0.696 ± 0.017 |
| MQQWSTKSPGVI | 0.651 ± 0.027 |
| MREAQAFRCLYG | 0.636 ± 0.0019 |
| MSFFPCVFSGFG | 0.738 ± 0.033 |
| MSGRGPYPYSPL | 0.7465 ± 0.0034 |
| MSKTIEREGNMI | 0.735 ± 0.034 |
| MSPSVFLPPLPL | 0.662 ± 0.09 |
| MSRRSVFGAVFW | 0.663 ± 0.039 |
| MSSTLCMLPFSV | 0.771 ± 0.012 |
| MTKNKFLTGSRL | 0.845 ± 0.22 |
| MTYSVWENVLTW | 0.733 ± 0.032 |
| MVDGFLRFDTKM | 0.704 ± 0.13 |
| MVELWQPASVFS | 0.663 ± 0.033 |
| MVGASFAILGFI | 0.699 ± 0.014 |
| MWAEWLCHGDRN | 0.742 ± 0.068 |
| NAKGRKQTGKRK | 0.695 ± 0.035 |
| NAYRYFLNKQNR | 0.697 ± 0.012 |
| NCFIPPARVFPS | 0.686 ± 0.028 |
| NCFVTILLGMWK | 0.513 ± 0.022 |
| NCKLAVSPRPLR | 0.692 ± 0.051 |
| NELSPSQDLPSS | 0.671 ± 0.095 |
| NERTETVHQGTP | 0.691 ± 0.045 |
| NFCSSGLPLLII | 0.648 ± 0.022 |
| NFLPSAARTRTP | 0.6758 ± 0.0023 |
| NFPVLLSISALL | 0.548 ± 0.072 |
| NGGERQDGGKHR | 0.648 ± 0.034 |

| Sequence | protein stability index |
| --- | --- |
| NGKGARSGETRT | 0.647 ± 0.057 |
| NGTGGVEGPQTL | 0.659 ± 0.025 |
| NHTLPGTRSSVW | 0.684 ± 0.09 |
| NIIADTHARRRF | 0.748 ± 0.11 |
| NIKEKRNKKKRR | 0.677 ± 0.073 |
| NINITQNVKNIK | 0.716 ± 0.06 |
| NIPESSVSKLSK | 0.678 ± 0.026 |
| NIRYRQKEKKND | 0.573 ± 0.031 |
| NKDGIKKKKYNK | 0.668 ± 0.032 |
| NKFLRSVVRKHE | 0.671 ± 0.011 |
| NKFNTINQNREV | 0.678 ± 0.04 |
| NKHDGRKWARYK | 0.6494 ± 0.00069 |
| NKKETRKQKTKK | 0.673 ± 0.017 |
| NKKGMSIWANER | 0.68915 ± 0.0002 |
| NKKIYRTKIKKL | 0.5917 ± 0.00069 |
| NKKKKHTQYKRK | 0.694 ± 0.0077 |
| NKKQTKKKRKNK | 0.731 ± 0.037 |
| NKLYDESLALYP | 0.704 ± 0.044 |
| NKNGGDLCLGSS | 0.652 ± 0.049 |
| NKTIVNNVKIRY | 0.574 ± 0.0065 |
| NKVRDKTQLKIE | 0.78 ± 0.094 |
| NLCRLGHTAGVL | 0.753 ± 0.086 |
| NLKLIRSEYNLN | 0.658 ± 0.042 |
| NLRKGHSDERVV | 0.691 ± 0.071 |
| NLRSIYKLGRLT | 0.549 ± 0.011 |
| NLRVANLAQRTE | 0.703 ± 0.05 |

| Sequence | protein stability index |
| --- | --- |
| NLSLPSPPLTTN | 0.731 ± 0.0082 |
| NMIKNNKWDINR | 0.7 ± 0.074 |
| NMYQQIESEYSK | 0.676 ± 0.045 |
| NNEKIEQRYSMK | 0.711 ± 0.019 |
| NNRIRNIISIRK | 0.743 ± 0.04 |
| NPFCPILPFALL | 0.853 ± 0.069 |
| NPLDRQNCTCGE | 0.656 ± 0.13 |
| NPLKAGFLVVTT | 0.6508 ± 0.0032 |
| NPPPSPALLSRP | 0.809 ± 0.06 |
| NPSSKVIALWKI | 0.556 ± 0.046 |
| NPTPPNLRSNLF | 0.6877 ± 0.0055 |
| NPVFPPPPHSQL | 0.75 ± 0.18 |
| NPWTHVPGRQNH | 0.731 ± 0.054 |
| NQPPFPLRRPPT | 0.699 ± 0.048 |
| NRCGGACGRQAG | 0.711 ± 0.027 |
| NRCIRIQETVRI | 0.619 ± 0.053 |
| NRFFFRHGCVVF | 0.691 ± 0.031 |
| NRNSHSGKIKLK | 0.691 ± 0.049 |
| NRVHLPELAFIT | 0.662 ± 0.014 |
| NRVPKKPAHLQQ | 0.647 ± 0.013 |
| NSCVFCLCHDLA | 0.6991 ± 0.006 |
| NSGKPWTLGRQE | 0.701 ± 0.043 |
| NSPTYEEKERHL | 0.82 ± 0.15 |
| NSRDCILQARET | 0.713 ± 0.012 |
| NTMVPPTGSGNA | 0.732 ± 0.13 |
| NTPNRNFTYTEN | 0.685 ± 0.038 |

| Sequence | protein stability index |
| --- | --- |
| NTRIKGERNILH | 0.702 ± 0.026 |
| NTRKNTTRKSQE | 0.637 ± 0.042 |
| NVYSVRGPWYGG | 0.6604 ± 0.0059 |
| NYRPAHSFGVIS | 0.725 ± 0.018 |
| NYSKPSYLVRAK | 0.697 ± 0.053 |
| PAAPLPPTPPPP | 0.708 ± 0.0082 |
| PAAPPHGFPPPR | 0.6341 ± 0.0046 |
| PACSPLPPLPLS | 0.7 ± 0.018 |
| PADPRSSPPVQQ | 0.691 ± 0.02 |
| PAGFQTPPLVHD | 0.708 ± 0.091 |
| PAHPHPYHPSLH | 0.6265 ± 0.0042 |
| PAHPPPPATPCP | 0.6817 ± 0.0063 |
| PAHPSDIGAAAP | 0.675 ± 0.042 |
| PAHSYPILASGH | 0.675 ± 0.034 |
| PALKQEGRPEHS | 0.6942 ± 0.0053 |
| PALLTICRTSLP | 0.64 ± 0.00076 |
| PALPPPFPPFSP | 0.72 ± 0.084 |
| PALPPPPPSPPL | 0.676 ± 0.15 |
| PALPPPSLPPPP | 0.6718 ± 0.0023 |
| PALTSSGPPPLV | 0.741 ± 0.096 |
| PANQVKTILGRL | 0.694 ± 0.11 |
| PAPALPPPSSPP | 0.69 ± 0.0095 |
| PAPAPPPPAVPL | 0.612 ± 0.018 |
